From article doi:10.1101/2025.05.15.654345

molecular target: human IFITM3 (untagged; interferon-induced transmembrane protein 3) (UniProt Q01628); assay: co-immunoprecipitation (anti-HA IP, anti-IFITM3 immunoblot, band ratio); conditions: HEK293T co-transfected with pCMV-IFITM3 (0.50 μg) and pBJ-97ZA Nef-HA WT or mutant (0.25 μg); parent: 100
UniProt Q01628, sequence (Q01628 whole entry): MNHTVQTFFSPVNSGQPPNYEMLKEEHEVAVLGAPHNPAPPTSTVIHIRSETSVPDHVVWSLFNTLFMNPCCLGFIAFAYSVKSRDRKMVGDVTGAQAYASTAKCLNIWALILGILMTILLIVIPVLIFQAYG

Substance | percent of parent (% (IFITM3/HA ratio, WT = 100))
97ZA013 Nef-HA (HIV-1 clade C primary isolate), wild type E153K | 73
97ZA013 Nef-HA (HIV-1 clade C primary isolate), wild type G2A | 1
97ZA013 Nef-HA (HIV-1 clade C primary isolate), wild type L164A; L165A | 87
97ZA013 Nef-HA (HIV-1 clade C primary isolate), wild type M20A | 124
97ZA013 Nef-HA (HIV-1 clade C primary isolate), wild type M169V; Q171L | 244
97ZA013 Nef-HA (HIV-1 clade C primary isolate), wild type N163T; C164S | 217
97ZA013 Nef-HA (HIV-1 clade C primary isolate), wild type R17A; R19A; R21A; R22A | 16
97ZA013 Nef-HA (HIV-1 clade C primary isolate), wild type R192F; R193H | 188
97ZA013 Nef-HA (HIV-1 clade C primary isolate), wild type S152D; E153K | 42
